The values below come from patent US20190161517A1 (ENSOL BIOSCIENCES, published 2019).

This assay addresses T1, extracellular domain recombinant protein RAGE (11629-H08H, Sino Biological Inc.) (UniProt Q15109 23-342, labeled with RED fluorescent dye NT-647-NHS (sites not given)).
T1 construct: extracellular domain; Bought protein; also called Receptor for Advanced Glycation End products
The experiment in a line: MST (Microscale Thermophoresis), NT-647-labeled RAGE extracellular domain, peptide titrated 50 uM to 1.52 nM, mean of three runs. The procedure: Specifically, the binding capacity of the peptide of Example 1 or 2 to RAGE was measured using MST (Microscale Thermophoresis).
Using a kit {Monolith NT™ Protein Labeling Kit RED-NHS (L001, NanoTemper Technologies)}, an extracellular domain recombinant protein RAGE (11629-H08H, Sino Biological Inc.) was bound to a RED fluorescent dye NT-647-NHS and then purified. Thereafter, a RAGE solution in which the concentration of the RED fluorescent dye NT-647-NHS labeled RAGE in an MST buffer (50 mM Tris-HCl pH 7.4, 150 mM NaCl, 10 mM MgCl₂, 0.05% Tween-20) solution was 20 μM was prepared. Also, a peptide solution was prepared in a 16-step dilution series, in which dilution was repeated with the MST buffer until the concentration of the peptide of Example 1 or Example 2 became 1.52 nM starting from 50 μM. Thereafter, the RAGE solution and the peptide solution were mixed in amounts of 100 μl each, injected into a capillary tube and then placed in the order of concentration in a Monolith NT. 115 tray (G009, NanoTemper technologies). The software was operated in accordance with the Monolith NT. 115 operating method. The same procedure was repeated three times, and the mean value of Kd (dissociation constant) was obtained.
(In general: MST reads how a fluorescent partner responds to local heating, with and without ligand.)

T1 sequence (Q15109 23-342 limits assumed): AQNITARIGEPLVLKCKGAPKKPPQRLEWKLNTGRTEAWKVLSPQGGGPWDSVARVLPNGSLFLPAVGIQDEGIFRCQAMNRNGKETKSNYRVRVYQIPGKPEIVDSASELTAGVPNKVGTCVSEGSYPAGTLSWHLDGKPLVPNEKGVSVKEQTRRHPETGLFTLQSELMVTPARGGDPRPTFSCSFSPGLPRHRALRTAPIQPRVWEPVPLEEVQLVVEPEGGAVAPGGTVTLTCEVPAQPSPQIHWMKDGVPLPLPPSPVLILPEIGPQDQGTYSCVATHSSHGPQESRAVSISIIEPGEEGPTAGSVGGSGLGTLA

B1: peptide of Example 1 (DGEFF) (peptide)
peptide: DGEFF
notes: Synthetic peptide made by AnyGen Co., Ltd
In the case of B1, the Kd was 76.9 nM.

B2: peptide of Example 2 (DGEF) (peptide)
peptide: DGEF
notes: as for B1
Turning to B2, the Kd was 80.9 nM.

What is called Kd is the equilibrium constant for the complex coming apart.
